These results are taken from patent US20130089497A1 (Genentech, published 2013).

Where a chain is given by its changes, count along the chain named.

As usually defined, the Kd is a measure of binding affinity in units of concentration. Read a low Kd as a tighter complex.

The target in test [1] is T1, human FcRH5 on stably transfected cells (BJAB.huFcRH5, OPM2.huFcRH5) (human, UniProt Q96RD9 16-977).
T1 construct: also called BJAB-FcRH5; OPM2-FcRH5
T1 chain: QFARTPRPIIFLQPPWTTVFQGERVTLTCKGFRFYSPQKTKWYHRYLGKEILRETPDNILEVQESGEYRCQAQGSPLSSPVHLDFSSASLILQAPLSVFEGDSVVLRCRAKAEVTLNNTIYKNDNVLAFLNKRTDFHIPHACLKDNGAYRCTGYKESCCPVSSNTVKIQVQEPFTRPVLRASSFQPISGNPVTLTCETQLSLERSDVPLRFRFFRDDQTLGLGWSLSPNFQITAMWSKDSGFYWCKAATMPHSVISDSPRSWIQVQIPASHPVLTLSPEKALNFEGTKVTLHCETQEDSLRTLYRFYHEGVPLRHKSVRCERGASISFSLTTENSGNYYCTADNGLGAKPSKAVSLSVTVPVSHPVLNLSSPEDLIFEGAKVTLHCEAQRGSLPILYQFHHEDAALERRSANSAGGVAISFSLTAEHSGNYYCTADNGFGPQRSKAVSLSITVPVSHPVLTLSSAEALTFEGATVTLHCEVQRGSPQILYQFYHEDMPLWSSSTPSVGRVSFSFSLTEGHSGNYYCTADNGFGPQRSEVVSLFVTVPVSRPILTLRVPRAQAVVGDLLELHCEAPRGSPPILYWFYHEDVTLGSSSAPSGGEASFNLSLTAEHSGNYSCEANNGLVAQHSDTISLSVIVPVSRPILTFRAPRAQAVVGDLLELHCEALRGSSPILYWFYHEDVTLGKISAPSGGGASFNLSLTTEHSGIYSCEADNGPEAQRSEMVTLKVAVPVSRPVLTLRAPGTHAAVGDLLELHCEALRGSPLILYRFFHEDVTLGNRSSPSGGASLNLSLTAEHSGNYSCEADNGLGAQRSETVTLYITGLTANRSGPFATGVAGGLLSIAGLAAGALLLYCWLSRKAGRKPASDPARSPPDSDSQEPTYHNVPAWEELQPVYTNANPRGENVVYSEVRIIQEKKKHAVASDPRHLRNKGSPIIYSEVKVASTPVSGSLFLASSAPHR
Briefly: Scatchard analysis: 0.5 nM 125I-labeled antibody competed with the unlabeled antibody (50 to 0.02 nM) on OPM2.huFcRH5 cells, 4 h at 4 C; St. Error 0.012. How it is done:
(§1) To further determine binding of the FcRH5 murine antibodies and IgG clones, binding of iodinated IgG variants to OPM2 cells expressing human FcRH5 and SVT2 cells expressing cynomologous FcRH5, Scatchard analysis was performed (Table 9A).
(§2) For Scatchard analysis, 0.5 nM I¹²⁵ labeled murine or IgG clone anti-FcRH5 was competed against unlabeled murine or IgG clone anti-FcRH5, respectively, ranging from 50 to 0.02 nM (12 step 1:2 serial dilution) in the presence of a transfected OPM2 line stably expressing human-FcRH5 and a transfected SVT2 line stably expressing cynomologous-FcRH5. After a four hour incubation at 4° C., cells were washed and cell pellet counts were read by a gamma counter (1470 WIZARD Automatic Gamma Counter; Perkin Elmer, Walthem, Mass.). All points were done in triplicate and counted for 10 minutes. The average CPM was used for Kd calculation using the New Ligand (Genentech, South San Francisco, Calif.) program.

In test [2] the target is T2, cynomolgus FcRH5 on stably transfected SVT2 cells (cynomologous monkey).
T2 construct: also called cyno FcRH5; cynoFcRH5
T2 chain: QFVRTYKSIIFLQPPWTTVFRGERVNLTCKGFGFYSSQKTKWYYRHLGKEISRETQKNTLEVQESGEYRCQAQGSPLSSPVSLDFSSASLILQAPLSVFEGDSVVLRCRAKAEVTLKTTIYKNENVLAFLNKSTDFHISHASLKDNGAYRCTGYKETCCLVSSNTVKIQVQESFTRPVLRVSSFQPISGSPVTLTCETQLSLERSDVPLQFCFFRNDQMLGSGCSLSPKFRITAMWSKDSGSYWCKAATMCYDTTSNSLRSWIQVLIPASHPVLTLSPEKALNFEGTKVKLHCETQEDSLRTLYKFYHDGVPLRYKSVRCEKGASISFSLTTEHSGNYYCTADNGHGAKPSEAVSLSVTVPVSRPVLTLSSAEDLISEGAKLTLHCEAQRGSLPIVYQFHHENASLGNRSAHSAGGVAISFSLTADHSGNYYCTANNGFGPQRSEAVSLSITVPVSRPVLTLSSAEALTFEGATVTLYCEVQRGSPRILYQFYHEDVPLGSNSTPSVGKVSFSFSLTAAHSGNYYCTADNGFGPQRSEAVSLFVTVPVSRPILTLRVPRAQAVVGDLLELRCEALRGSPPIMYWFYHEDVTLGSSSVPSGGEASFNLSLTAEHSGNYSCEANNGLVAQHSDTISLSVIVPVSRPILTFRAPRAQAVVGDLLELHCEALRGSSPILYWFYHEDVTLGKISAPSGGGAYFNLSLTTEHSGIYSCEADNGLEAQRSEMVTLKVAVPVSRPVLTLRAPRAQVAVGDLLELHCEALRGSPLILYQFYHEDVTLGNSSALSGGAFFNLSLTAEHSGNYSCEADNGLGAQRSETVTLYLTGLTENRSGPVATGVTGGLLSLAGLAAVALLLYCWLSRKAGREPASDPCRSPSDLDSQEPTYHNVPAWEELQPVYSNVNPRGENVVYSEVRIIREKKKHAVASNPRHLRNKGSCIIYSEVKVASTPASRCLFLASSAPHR
Put plainly: Scatchard analysis: 0.5 nM 125I-labeled antibody competed with the unlabeled antibody (50 to 0.02 nM) on SVT2.cyFcRH5 cells, 4 h at 4 C; St. Error 0.027. As for the experimental part: as §1, §2

The target of test [3] is T1, human FcRH5 on stably transfected cells …. Put plainly: Scatchard analysis: 0.5 nM 125I-labeled antibody competed with the unlabeled antibody (50 to 0.02 nM) on OPM2.huFcRH5 cells, 4 h at 4 C; St. Error 0.027. How it is done:
as §1, §2

Test [4] deals with T2, cynomolgus FcRH5 on stably transfected …. Briefly: Scatchard analysis: 0.5 nM 125I-labeled antibody competed with the unlabeled antibody (50 to 0.02 nM) on SVT2.cyFcRH5 cells (printed SVT2.cyFcRHS), 4 h at 4 C; St. Error 0.012. As for the experimental part: as §1, §2

B1: humanized anti-FcRH5 antibody 13G9 version 1 (antibody, human IgG1, V domains shown)
VH: EVQLVQSGGGLVQPGGSLRLSCAASGYTFTNYGMNWVRQAPGKGLEWVGWVNTYTGEPTYTDDFKGRFTFSVDTSKSTVYLQMNSLRAEDTAVYYCARRSIPYYYAMDYWGQGTLVTVS
VL: DIQMTQSPSSLSASVGDRVTITCKASQNVGSNVAWYQQKPGKAPKALIYSASYRYSGVPSRFSGSGSGTDFTLTISSLQPEDFATYYCQQYKTWTFGQGTKVEIKR
notes: also called hu13G9.v1; hu13G9 v1
For the molecule B1, the Kd worked out at 0.2 nM in test [1] and 0.56 nM in test [2].

B2: humanized anti-FcRH5 antibody hu13G9.1b (antibody, human IgG1, V domains shown)
VH: B1 VH
VL: B1 VL with Y87F
notes: Full IgG as hu13G9.1a (human IgG1, kappa)
Regarding B2, the Kd in test [3] came out at 0.3 nM; in test [4], 0.53 nM.
